This note sets out measurements from article PMC10074443.

In one series the test system is N[C@H](CF)[C@H](N)C(=O)O. Description: continuous MesG/hydroxylamine coupled adenylation assay. Format: biochemical, Paraburkholderia acidicola. The conditions noted are these: co-substrate ATP; hydroxylamine as acceptor.
A further series concerns C[C@@H](N)[C@H](N)C(=O)O. The description is as above. In kind it is biochemical, Paraburkholderia acidicola. The conditions noted are these: co-substrate ATP; hydroxylamine as acceptor.

As for “A3 (adenylation domain of SulM) (Paraburkholderia acidicola)”, the values for the Km in the series with N[C@H](CF)[C@H](N)C(=O)O and in the series on C[C@@H](N)[C@H](N)C(=O)O were 20.7 mM and 1.08 mM, respectively.
